Experimental data reported in patent US20220144930A1.

How the values were obtained:
[1] = molecular target: VEGF-165, VEGFC and VEGFD mixture; experiment: cell-based or functional assay
[2] = molecular target: recombinant human VEGF165 protein (human) (UniProt P15692); experiment: cell-based or functional assay

Chain of EYLEA (Fc fusion) (chain): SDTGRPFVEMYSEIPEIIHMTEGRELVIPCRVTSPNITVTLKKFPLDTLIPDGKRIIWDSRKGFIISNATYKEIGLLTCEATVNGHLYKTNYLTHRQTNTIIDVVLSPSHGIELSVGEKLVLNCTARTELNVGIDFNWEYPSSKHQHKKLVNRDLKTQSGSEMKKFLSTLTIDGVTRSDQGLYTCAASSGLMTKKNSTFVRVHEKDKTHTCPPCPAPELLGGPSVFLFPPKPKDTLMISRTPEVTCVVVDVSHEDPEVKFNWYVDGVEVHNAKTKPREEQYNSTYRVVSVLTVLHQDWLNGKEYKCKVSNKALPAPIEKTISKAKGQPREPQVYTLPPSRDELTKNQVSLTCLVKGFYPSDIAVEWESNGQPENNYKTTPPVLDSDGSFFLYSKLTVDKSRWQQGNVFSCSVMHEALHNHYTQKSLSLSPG

EC50(nM), neutralizing VEGF165, VEGFC and VEGFD mixture, HUVEC proliferation [1] [nM]	Maximum neutralization rate Emax (%), VEGF165, VEGFC and VEGFD mixture, HUVEC proliferation [1] [%]	EC50(nM), neutralizing VEGF165 at 10 ng/mL, HUVEC proliferation [2] [nM]	EC50(nM), neutralizing VEGF165 at 100 ng/mL, HUVEC proliferation [2] [nM]	EC50(nM), neutralizing VEGF165 at 1000 ng/mL, HUVEC proliferation [2] [nM]	maximum neutralization rate (%), VEGF165 at 10 ng/mL, HUVEC proliferation [2] [%]	maximum neutralization rate (%), VEGF165 at 100 ng/mL, HUVEC proliferation [2] [%]	maximum neutralization rate (%), VEGF165 at 1000 ng/mL, HUVEC proliferation [2] [%]	Substance
0.77	58.5							Avastin (bevacizumab) (antibody)
		0.16	2.9	40.2	101	98.7	80.2	EYLEA (Fc fusion)
